Consider eight molecules from publication PMC11018352, “Guanidine production by plant homoarginine-6-hydroxylases” (eLife, 2024).

For data set [1], the target named is T1, 2-ODD33 (Os2-ODD33, rice 2-ODD-C23 ortholog) (Oryza sativa, UniProt Q6K332).
T1 sequence (Q6K332 1-328): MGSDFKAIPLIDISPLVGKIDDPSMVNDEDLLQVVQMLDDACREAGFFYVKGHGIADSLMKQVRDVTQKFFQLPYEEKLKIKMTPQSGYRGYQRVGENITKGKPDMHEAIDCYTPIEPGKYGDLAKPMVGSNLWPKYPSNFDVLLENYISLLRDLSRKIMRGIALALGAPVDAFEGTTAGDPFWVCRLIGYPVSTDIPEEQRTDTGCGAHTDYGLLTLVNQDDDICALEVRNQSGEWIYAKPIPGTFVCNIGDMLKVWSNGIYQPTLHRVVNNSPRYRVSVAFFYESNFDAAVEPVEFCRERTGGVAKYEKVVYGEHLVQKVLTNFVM
Briefly: guanidine production in expressing E. coli culture, LC-MS. It is filed as cell-based. The following applies: 1 mM homoarginine in medium, 18 °C overnight.

In data set [2] the target is T2, Gm2-ODD-C23 (soybean 2-ODD-C23) (Glycine max, UniProt A0A0R4J5R0).
T2 construct: gene 2ODDC23
T2 sequence (A0A0R4J5R0 1-331): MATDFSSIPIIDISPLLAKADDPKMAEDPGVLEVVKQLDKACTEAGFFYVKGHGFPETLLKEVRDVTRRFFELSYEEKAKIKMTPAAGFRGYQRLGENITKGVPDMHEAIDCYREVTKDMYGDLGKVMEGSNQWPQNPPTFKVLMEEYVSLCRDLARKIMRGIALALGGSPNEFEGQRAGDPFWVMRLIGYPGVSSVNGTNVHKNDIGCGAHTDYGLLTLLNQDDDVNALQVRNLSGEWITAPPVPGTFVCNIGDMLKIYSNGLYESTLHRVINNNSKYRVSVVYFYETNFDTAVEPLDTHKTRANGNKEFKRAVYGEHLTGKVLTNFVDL
The description is as above. The class given is cell-based. The following applies: 1 mM homoarginine in medium, 18 °C overnight.

The target in another data set is T3, At3g50210 (2-ODD-C23.1) (Arabidopsis thaliana, UniProt Q84MB6).
T3 construct: gene 2ODDC23.1
T3 sequence (Q84MB6 1-332): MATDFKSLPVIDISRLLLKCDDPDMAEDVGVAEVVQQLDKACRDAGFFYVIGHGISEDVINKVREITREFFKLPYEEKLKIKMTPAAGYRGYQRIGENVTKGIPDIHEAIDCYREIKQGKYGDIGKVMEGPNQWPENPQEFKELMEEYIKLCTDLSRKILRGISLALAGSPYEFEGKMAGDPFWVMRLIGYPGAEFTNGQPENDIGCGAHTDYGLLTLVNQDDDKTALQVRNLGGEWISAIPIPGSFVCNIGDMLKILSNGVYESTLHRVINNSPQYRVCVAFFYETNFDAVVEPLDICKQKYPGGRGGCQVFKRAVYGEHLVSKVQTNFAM
The experiment in a line: inhibition of homoarginine-dependent O2 consumption. It is filed as biochemical. Particulars: 0.5 mM 2-oxoglutarate, pH 7.2, 30 °C.

Data set [3] deals with T4, Din11s (2-ODD-C23.2, short variant of Din11) (Arabidopsis thaliana, UniProt Q8H113).
T4 construct: gene 2ODDC23.2
T4 sequence (Q8H113 26-357): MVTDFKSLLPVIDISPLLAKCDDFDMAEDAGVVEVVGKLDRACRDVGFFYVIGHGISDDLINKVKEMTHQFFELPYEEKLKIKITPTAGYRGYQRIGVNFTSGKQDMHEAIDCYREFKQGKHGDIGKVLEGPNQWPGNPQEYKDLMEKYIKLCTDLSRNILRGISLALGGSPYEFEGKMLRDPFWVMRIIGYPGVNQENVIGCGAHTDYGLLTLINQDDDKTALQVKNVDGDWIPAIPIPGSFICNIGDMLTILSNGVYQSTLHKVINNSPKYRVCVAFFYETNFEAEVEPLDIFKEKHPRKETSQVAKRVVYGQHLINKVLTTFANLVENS
The description is as above. The class given is biochemical. Particulars: competitive versus homoarginine; 1 mM canavanine, 0.5 mM 2-oxoglutarate, pH 7.2, 30 °C.

Substrate in data set [4]: N=C(N)NCCCC[C@H](N)C(=O)O
Briefly: O2 consumption, Clark-type electrode. Particulars: 0.5 mM 2-oxoglutarate, Fe2+, ascorbate, pH 7.2, 30 °C. It is filed as biochemical, Arabidopsis thaliana.

Substrate in data set [5]: O=C(O)[C@@H]1CCCC=N1
The experiment in a line: NADH oxidation, spectrophotometric. It is filed as biochemical, Oryza sativa. Particulars: NADH as electron donor (fixed 1 mM), pH 7.5, 35 °C.

Substrate in data set [6]: N=C(N)NCCC[C@H](N)C(=O)O
The experiment in a line: O2 consumption, Clark-type electrode. The class given is biochemical, Arabidopsis thaliana. Particulars: 0.5 mM 2-oxoglutarate, Fe2+, ascorbate, pH 7.2, 30 °C.

Substrate in data set [7]: NC(=O)c1ccc[n+]([C@@H]2O[C@H](COP(=O)(O)OP(=O)(O)OC[C@H]3O[C@@H](n4cnc5c(N)ncnc54)[C@H](O)[C@@H]3O)[C@@H](O)[C@H]2O)c1
Briefly: NAD+ reduction, spectrophotometric. The class given is biochemical, Arabidopsis thaliana. The following applies: 1 mM AASA/P6C, pH 7.5, 35 °C, varied: cofactor.

Substrate in data set [8]: N[C@@H](CCCC=O)C(=O)O
Briefly: NAD+ reduction, spectrophotometric. The class given is biochemical, Arabidopsis thaliana. The following applies: 1 mM NAD+, pH 7.5, 35 °C, substrate is the AASA/P6C equilibrium mixture.

The Km is the concentration of substrate that gives half-maximal velocity.

For the molecule `N=C(N)NCCCC[C@H](N)C(=O)O` [homoarginine], the “guanidine production in expressing E. coli culture, LC-MS” value is “orthologs from soybean and rice (2-ODD33) mediated homoarginine-dependent guanidine accumulation” in data set [1]; “orthologs from soybean and rice (2-ODD33) mediated homoarginine-dependent guanidine accumulation” in data set [2].

Turning to `N=C(N)NOCC[C@H](N)C(=O)O` [canavanine], the “inhibition of homoarginine-dependent O2 consumption” value is listed as “the inhibition of At3g50210 was of the mixed type” against At3g50210 (2-ODD-C23.1) (mixed type versus homoarginine, 1 mM canavanine) and “canavanine showed competitive inhibition of the reaction of Din11s with homoarginine” in data set [3].

Turning to `N=C(N)NCCC[C@H](N)C(=O)O` [arginine], on At3g50210 (2-ODD-C23.1) (competitive versus homoarginine, 1 mM arginine), the “inhibition of homoarginine-dependent O2 consumption” value was “we detected a competitive inhibition of Din11s and At3g50210”.

B1: At3g50210 (2-ODD-C23.1) (Arabidopsis thaliana) (protein)
chain: MATDFKSLPVIDISRLLLKCDDPDMAEDVGVAEVVQQLDKACRDAGFFYVIGHGISEDVINKVREITREFFKLPYEEKLKIKMTPAAGYRGYQRIGENVTKGIPDIHEAIDCYREIKQGKYGDIGKVMEGPNQWPENPQEFKELMEEYIKLCTDLSRKILRGISLALAGSPYEFEGKMAGDPFWVMRLIGYPGAEFTNGQPENDIGCGAHTDYGLLTLVNQDDDKTALQVRNLGGEWISAIPIPGSFVCNIGDMLKILSNGVYESTLHRVINNSPQYRVCVAFFYETNFDAVVEPLDICKQKYPGGRGGCQVFKRAVYGEHLVSKVQTNFAM
As to B1, the Km in [4] is 780 ± 150 µM.

B2: At3g49630 (2-ODD-C23.3) (Arabidopsis thaliana) (protein)
chain: MATNFKSLLPVIDISPLVVKCDDANMAEDAGVAEVVGKLDRACRDAGFFYVIGHGISEDFIRKVRVMSHQFFELPYEEKLKIKITPAAGYRGYQRIGLNLTNGKQDMHEAIDCYKEFKQGKHGDIGKVMEGANQWPENPQEYKELMEEYIKLCIDLSRNILRGISLALGGSPYEFEGKMLTDPFWIMRILGYPGVNQENVIGCGAHTDYGLLSLINQDDDKTALQVRDLAGDWIPVIPIPGSFVCNIGDMLKILSNGVYESTLHRVINNSPRYRVCVGFFYETNFDAAVEPLDIFKEKYPGKGTSQVFKRVVYGEHLVHKLQTTFQNLVEHS
notes: b44 prints At3g49620, apparently a slip for At3g49630
As to B2, in [4], the Michaelis-Menten constant (Km) amounted to 4600 ± 200 µM.

B3: OsP5CR (pyrroline-5-carboxylate reductase from rice) (Oryza sativa Japonica Group) (protein)
chain: MAAPPQPVPAPAAASPEVFRLGFIGPGNLAESIARGVAASGVLPATAIRTAPHRRPERAEAFSSIGAHILETNAQVVDDSDVIVISVKPQIVRQVLVELKPLLSEEKLLVSIAAGIKMEDLQGWSGHRRFIRVMPNTPSAVGQAASVMCLGEMATENDENRVRSLFSAIGKVWTAEEKYFDAVTGLSGSGPAYIFLAIEAMADGGVAAGLPRDLALGLASQTVLGAATMVNKTGKHPGQLKDMVTSPAGTTITGIQELEKGAFRGTLINAVVAATKRCRELSQS
notes: recombinant, purified
Regarding B3, the Km in data set [5] stood at 173 ± 18 µM.

B4: Din11s (2-ODD-C23.2, short variant of Din11) (Arabidopsis thaliana) (protein)
chain: MVTDFKSLLPVIDISPLLAKCDDFDMAEDAGVVEVVGKLDRACRDVGFFYVIGHGISDDLINKVKEMTHQFFELPYEEKLKIKITPTAGYRGYQRIGVNFTSGKQDMHEAIDCYREFKQGKHGDIGKVLEGPNQWPGNPQEYKDLMEKYIKLCTDLSRNILRGISLALGGSPYEFEGKMLRDPFWVMRIIGYPGVNQENVIGCGAHTDYGLLTLINQDDDKTALQVKNVDGDWIPAIPIPGSFICNIGDMLTILSNGVYQSTLHKVINNSPKYRVCVAFFYETNFEAEVEPLDIFKEKHPRKETSQVAKRVVYGQHLINKVLTTFANLVENS
In the case of B4, the Km in [6] amounted to 6000 ± 5100 µM; in data set [4], 1900 ± 300 µM.

B5: AtALDH7B4 (At1g54100, AASA-DH) (Arabidopsis thaliana) (protein)
chain: MGSANNEYEFLSEIGLTSHNLGSYVAGKWQANGPLVSTLNPANNQPIAQVVEASLEDYEQGLKACEEAAKIWMQVTAPKRGDIVRQIGDALRSKLDYLGRLLSLEMGKILAEGIGEVQEVIDMCDFAVGLSRQLNGSVIPSERPNHMMLEMWNPLGIVGVITAFNFPCAVLGWNACIALVCGNCVVWKGAPTTPLITIAMTKLVAEVLEKNNLPGAIFTAMCGGAEIGEAIAKDTRIPLVSFTGSSRVGSMVQQTVNARSGKTLLELSGNNAIIVMDDADIQLAARSVLFAAVGTAGQRCTTCRRLLLHESVYDKVLEQLLTSYKQVKIGNPLEKGTLLGPLHTPESKKNFEKGIEVIKSQGGKILTGGKAVEGEGNFVEPTIIEISADAAVVKEELFAPVLYVLKFKSFGEAVAINNSVPQGLSSSIFTRNPENIFRWIGPLGSDCGIVNVNIPTNGAEIGGAFGGEKATGGGREAGSDSWKQYMRRSTCTINYGNELPLAQGINFG
As for B5, the Km is 324 ± 17 µM in data set [7] and 11.9 ± 1.0 µM in [8].
